{"source": "paper PMC7266957", "key": {"[1]": {"tested_on": "Type I-F Cascade (Cas8f, Cas5f, His-Cas7f, Cas6f, crRNA) (Shewanella baltica OS195)", "assay": "BLI"}, "[2]": {"tested_on": "Type I-Fv Cascade (Cas5fv, His-Cas7fv, Cas6f, crRNA spacer4) (Shewanella putrefaciens CN-32)", "assay": "BLI", "details": "BLI buffer: SEC buffer (composition in Supplementary Table II, not in material) + 0.1 uM BSA + 0.01% Triton X-100, 100 nM biotinylated oligonucleotide loaded …"}}}
{"sequence": "CGCCGGTTATAGGTTTGCGCGTCTTGCTGGGCGATAGGACGTGGGATATCTTTTTGATATCCCACGTCCTATCGCCCAGCAAGACGCGCAAACCTATAACCGGCG (double strand) [Complementary (GG PAM)]", "values": [{"measurement": "Kd", "setting": "[1]; BLI buffer: SEC buffer (composition in Supplementary Table II, not in material) + 0.1 uM BSA + 0.01% Triton X-100, 100 nM biotinylated oligonucleotide loaded …", "result": 99.6, "unit": "nM"}, {"measurement": "binding signal", "setting": "[1]; BLI buffer: SEC buffer (composition in Supplementary Table II, not in material) + 0.1 uM BSA + 0.01% Triton X-100, 100 nM biotinylated oligonucleotide loaded …, scale: fold reduction of equilibrium binding level", "result": 5}, {"measurement": "Kd", "setting": "[2]", "result": 46.5, "unit": "nM"}]}
